# Laboratory results as given in paper doi:10.1101/2023.07.20.548338.
# Target: GLS1 (endogenous; both KGA and GAC, not told apart) (UniProt D3Z7P3)
# Test: IP of endogenous GLS1, PDZD8 blot
# Settings: reference: wild-type PDZD8, glucose-starved cells; sites T527
substance,measurement,value
"PDZD8 (from UniProt Q8NEN9) PDZD8-T527A, glucose-starved cells",binding against the reference,weaker
